# Measurements as given in patent US6376653 (GlaxoSmithKline, dated 2002).
# B1: monoclonal antibody 12H8 (antibody, V domains shown)
# VH: EVQLVESGGGLVKPGGSLKLSCAASGFTFSDYGMHWVRQAPEKGLEWVAYINSGSSTITYADTVKGRFTISRDNAKNTLFLQMTSLRSEDTAIYYCARGYYGPYYFDYWGQGTALTVSS
# VL: DIVMTQSHKFMSTSVGDRVSFTCKASQNVGTAVAWYQQKPGQSPKLLIYWASSRHTGVPDRFTGSGSGTDFTLTITNVQSEDLADYFCQEYSSYPLTFGVGTKLELK
# notes: also called mAb 12H8
# Target: T1, recombinant Tie2 extracellular domain-Fc fusion (UniProt Q02763 23-748, limits assumed)
# T1 construct: extracellular domain; also called Tie2-Fc; Tie2 receptor-Fc fusion; not shown: Fc part
# T1 sequence (Q02763 23-748 limits assumed): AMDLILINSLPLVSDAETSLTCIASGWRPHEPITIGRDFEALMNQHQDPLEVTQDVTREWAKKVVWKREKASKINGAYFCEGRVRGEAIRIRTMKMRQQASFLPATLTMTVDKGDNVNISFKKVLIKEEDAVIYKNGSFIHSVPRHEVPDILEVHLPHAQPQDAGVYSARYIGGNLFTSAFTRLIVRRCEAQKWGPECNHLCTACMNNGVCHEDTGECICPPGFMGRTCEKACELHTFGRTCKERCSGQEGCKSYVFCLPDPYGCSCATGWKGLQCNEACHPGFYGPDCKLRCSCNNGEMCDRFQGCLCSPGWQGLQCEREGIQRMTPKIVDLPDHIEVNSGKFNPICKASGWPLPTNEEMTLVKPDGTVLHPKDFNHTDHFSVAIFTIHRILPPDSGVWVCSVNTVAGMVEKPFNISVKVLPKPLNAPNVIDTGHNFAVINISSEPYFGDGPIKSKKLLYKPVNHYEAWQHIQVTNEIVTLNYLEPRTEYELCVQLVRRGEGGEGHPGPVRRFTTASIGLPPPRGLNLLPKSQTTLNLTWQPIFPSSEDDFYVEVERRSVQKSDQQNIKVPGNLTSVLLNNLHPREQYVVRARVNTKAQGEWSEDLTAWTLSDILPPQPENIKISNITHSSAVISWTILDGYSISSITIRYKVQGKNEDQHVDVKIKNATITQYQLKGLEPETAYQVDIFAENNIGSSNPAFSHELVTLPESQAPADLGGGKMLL
# Assay: BIAcore SPR, purified mAb captured on rabbit anti-mouse IgG Fc, Tie2-Fc injected
# Description: The affinity of the purified mAbs was measured in the BIAcore. Using a flow rate of 10 μl/min, the mAb (diluted in HBS buffer) was injected over a rabbit anti-mouse IgG Fc surface, followed by buffer flow and the RU recorded. Tie2-Fc diluted in HBS buffer was then injected for 120 s followed by buffer flow for 240 s and regeneration of the sensor chip surface with an injection of 15 μl 0.1 M phosphoric acid. BIAcore software was used for association and dissociation-phase analysis. The murine monoclonal antibodies bound to soluble monomeric Tie2 receptor. The on-rates ($kass$) and off-rates ($kdiss$) were calculated.
binder,measurement,value
B1,Kd,< 100 pM
